Consider 19 molecules from patent publication US20220144937A1 (JIANGSU HENGRUI MEDICINE, published 2022).

Assay [1] addresses T1, human IL-5 with his-tag (rhIL-5-his) (human, UniProt P05113 20-134).
T1 sequence: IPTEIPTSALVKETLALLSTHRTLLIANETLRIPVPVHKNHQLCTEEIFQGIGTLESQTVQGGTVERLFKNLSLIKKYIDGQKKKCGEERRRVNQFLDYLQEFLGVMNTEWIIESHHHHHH
Description: FACS blocking: biotin-IL-5 (100 ng/ml) binding to IL-5Rα/β-CHOS cells, antibody diluted. The method, then:
Particular method was as follows: CD-CHO comprising […] and […] zeozin was used to culture CHO-S-IL-5Rα and β. During cell culture, the concentration should not exceed 3×10⁶ cells/ml. IL-5Rα/β-CHOS cells in good condition were centrifuged (at 1000 rpm, 5 min), and washed once with 10% FBS in PBS, and the cells were counted, the cell concentration was adjusted to 4×10⁶ cells/ml, and 25 μl was taken out and added into a round-bottom 96-well plate. The antibody to be tested was diluted with PBS solution comprising 10% FBS. The initial concentration was 200 μg/ml, and diluted at 1:10 for 8 gradient dilutions. 25 μl of 100 ng/ml IL-5 labeled by a biotin labeling kit (Tojin Chemical, LK03) was added, and fully mixed with 50 μl of diluted antibody at each concentration, and added into 96-well plate that has been added with cells, and incubated at 4° C. for 1 hour. After the incubation, the sample was centrifuged at 4° C. (400 g, 5 min), and the supernatant was removed, the plated was washed with 200 μl of pre-cooled PBS by centrifugation, repeated for twice; PE-Avidin secondary antibody diluted at 1:1333 was added and incubated in the dark at 4° C. for 40 min, centrifuged at 4° C.

In assay [2] the target is T1, human IL-5 with his-tag (rhIL-5-his). Description: cell-based or functional assay.
Assay [3] shares this target. The assay can be described thus: cell-based or functional assay. This is another data set of the same source.
Assay [4] shares this target. Description: Biacore. The method, then:
(§1) The affinity of the murine IL-5 antibody to be tested with human IL-5 was measured by Biacore T200 (GE) instrument.
(§2) The protein A biosensor chip was used to affinity capture of the molecules to be tested, and then the antigen (recombinant human and cyno IL-5 prepared in Example 1) flowed through the surface of the chip, and the reaction signal was detected in real time with the Biacore T200 instrument to obtain the binding and dissociation curves. After the dissociation of each experimental cycle was completed, the biosensor chip was washed and regenerated with glycine-hydrochloric acid regeneration solution (pH 1.5). BIA evaluation version 4.1 GE software was used to fit the data against (1:1) Langmuir model, and the affinity value was obtained and shown in Table 13.
In general terms: SPR reads the build-up and loss of mass on a sensor chip optically.

Assay [5] deals with T2, cyno IL-5 with his-tag (cyno (paragraph 156 says rhesus), UniProt P48093 20-134 (rhesus entry)).
T2 construct: also called rhesus IL-5 with His-tag; monkey IL-5
T2 sequence: T1 sequence with T7A, D80G
The assay can be described thus: Biacore T200, antibody captured on protein A chip, antigen in flow, 1:1 Langmuir. The protocol: as §1, §2

The target of assay [6] is T1, human IL-5 with his-tag (rhIL-5-his). Described as above. The method, then:
as §1, §2

Assay [7] shares this target. Described as above. The method, then:
The affinity of the humanized IL-5 antibody to be tested with human IL-5 was measured by Biacore T200 (GE) instrument.
as §2, with “(prepared” for “(recombinant human and cyno IL-5 prepared”, “14.” for “13.”
This is another data set of the same source.

Where a chain is given by its changes, count along the chain named.

In general, IC50 refers to the concentration at which inhibition is half-maximal. The low end stands for inhibition by little substance, the high end for a need for much substance. In turn, IgG (antibody) registered an IC50 in assay [1] of 8.78 µg/mL.

B1: Hu39D10 (antibody, human IgG4 S228P, kappa, V domains shown)
VH: EVQLVESGGGLVQPGGSLRLSCAVSGLSLTSNSVNWIRQAPGKGLEWVGLIWSNGDTDYNSAIKSRFTISRDTSKSTVYLQMNSLRAEDTAVYYCAREYYGYFDYWGQGTLVTVSS
VL: DIQMTQSPSSLSASVGDRVTITCLASEGISSYLAWYQQKPGKAPKLLIYGANSLQTGVPSRFSGSGSATDYTLTISSLQPEDFATYYCQQSYKFPNTFGQGTKVEVKR
notes: Anti-IL-5 antibody of WO2012083370A1, used as positive control; also called positive control; positive antibody
B1 displayed an IC50 in assay [1] of 0.0251 µg/mL. Besides, the “IC50 of inhibition of IL-5 induced TF1 cell proliferation” value in assay [2] came to 0.3 nM. Moreover, in assay [3], the “IC50 of blocking IL-5 induced eosinophil adhesion” value was 0.0118 µg/mL.

B2: mAb1773 (antibody, V domains shown)
VH: EVQLQQSLAELVRPGASVTLSCTASGFNIKNTYIHWVKQRPEQGLEWIGRIDPANGDTKHGPKFQGKATITADTSSNTAYLQFSSLTSEDTAIYYCFRYGIYPDHWGQGTPLTVSS
VL: QIVLTQSPALMSASPGEKVTMTCSASSSVNYIYWYQQKPRSSPKPWIYLTATLASGVPARFSGSGSGTSFSLTISRMEAEDAATYYCQQWNSYPYTFGGGTKLEIE
notes: Murine hybridoma antibody
Usually Kd stands for a measure of binding affinity in units of concentration. For the molecule B2, the Kd in assay [4] is 0.129 nM; in assay [5], 0.476 nM; in assay [6], 0.129 nM.

B3: mAb1780 (antibody, V domains shown)
VH: QVKLLQSGAALVKPGDSVKMSCKASDYTFTEYLIHWVKQSQGRSLEWIGYINPYSGGTVYNEKFKSKATLTVDKFSSTAYMEFRRLTFEDSAIYYCARDGGYSDPLDYWGQGVMVTVSS
VL: DTVLTQSPALAVSPGERVSISCRASEGLTSYMHWYQQKPGQQPKLLIYKASNLASGVPARFSGSGSGTDFTLTIDPVEADDAATYFCQQNWNDPWTFGGGTKLELK
notes: Murine hybridoma antibody
As to B3, the Kd in assay [4] amounted to 0.0899 nM; in assay [5], 0.312 nM; in assay [6], 0.0899 nM.

B4: h1706-006 (antibody, human IgG1, kappa, V domains shown)
VH: EVQLVESGGGLVQPGGSLRLSCAASGFTFSHYYMAWVRQAPGKGLEWVSSINYEGNSAYYGDSVKGRFTISRDNSKNTLYLQMNSLRAEDTAVYYCATETLRESLDYWGQGTMVTVSS
VL: DIQMTQSPSSVSASVGDRVTITCRASQDIGNYLSWYQQKPGKSPKLLIYSASNLEVGVPSRFSGSGSGTDFTLTISSLQPEDFATYYCLQHKQFPRTFGGGTKVEIKR
notes: Constant regions as for h1706-003
B4 came in with a Kd in assay [7] of 0.0173 nM. Besides, the “IC50 of inhibition of IL-5 induced TF1 cell proliferation” value in assay [2] was 0.34 nM.

B5: h1705-007 (antibody, human IgG1, kappa, V domains shown)
VH: B4 VH with N52S, N56D, S57I, A58T, T98S, E99Q, L105F, M113L
VL: B4 VL with G30A, S50G, A51T, G66R, H91D, Q93E
In assay [7], B5 showed a Kd of 0.0221 nM. Further, the “IC50 of inhibition of IL-5 induced TF1 cell proliferation” value in assay [2] was found to be 0.25 nM.

B6: h1706-004 (antibody, human IgG1, kappa, V domains shown)
VH: B4 VH with S49T, V93T
VL: B4 VL with S43A
On to B6, for which, in assay [2], the “IC50 of inhibition of IL-5 induced TF1 cell proliferation” value is 0.3 nM.

B7: h1706-007 (antibody, human IgG1, kappa, V domains shown)
VH: B4 VH with S49T, V93T
VL: B4 VL
For B7, the “IC50 of inhibition of IL-5 induced TF1 cell proliferation” value in assay [2] is 0.28 nM.

B8: h1706-003 (antibody, human IgG1, kappa, V domains shown)
VH: B4 VH
VL: B4 VL with S43A
Turning to B8, the Kd in assay [7] turned out to be 0.0189 nM. Further, the “IC50 of inhibition of IL-5 induced TF1 cell proliferation” value in assay [2] turned out to be 0.31 nM.

B9: h1705-010 (antibody, human IgG1, kappa, V domains shown)
VH: B4 VH with N52S, N56D, S57I, A58T, T98S, E99Q, L105F, M113L
VL: B4 VL with G30A, L47V, S50G, A51T, G66R, T69S, F71Y, Y87F, H91D, Q93E
For B9, binding in assay [7] was put at a Kd of 0.0205 nM. The “IC50 of inhibition of IL-5 induced TF1 cell proliferation” value in assay [2] was 0.3 nM.

B10: h1705-004 (antibody, human IgG1, kappa, V domains shown)
VH: B4 VH with N52S, N56D, S57I, A58T, T98S, E99Q, L105F, M113L
VL: B4 VL with G30A, S43A, S50G, A51T, H91D, Q93E
Molecule B10 registered a Kd in assay [7] of 0.0214 nM. Besides, the “IC50 of inhibition of IL-5 induced TF1 cell proliferation” value in assay [2] was 0.3 nM.

B11: h1705-005 (antibody, human IgG1, kappa, V domains shown)
VH: B4 VH with S49T, N52S, N56D, S57I, A58T, V93T, T98S, E99Q, L105F, M113L
VL: B4 VL with G30A, S43A, S50G, A51T, H91D, Q93E
For B11, the Kd in assay [7] was 0.0216 nM. In addition, the “IC50 of inhibition of IL-5 induced TF1 cell proliferation” value in assay [2] turned out to be 0.3 nM.

B12: h1705-006 (antibody, human IgG1, kappa, V domains shown)
VH: B4 VH with N52S, N56D, S57I, A58T, T98K, E99Q, L105F, M113L
VL: B4 VL with G30A, S50G, A51T, G66R, H91D, Q93E
Consider B12, for which, in assay [7], the Kd stood at 4.11 nM. This counts as single-digit nanomolar.

B13: h1705-003 (antibody, human IgG1, kappa, V domains shown)
VH: B4 VH with N52S, N56D, S57I, A58T, T98K, E99Q, L105F, M113L
VL: B4 VL with G30A, S43A, S50G, A51T, H91D, Q93E
In assay [7], B13 yielded an equilibrium dissociation constant (Kd) of 3.35 nM. This Kd and that of the molecule before are within 1.5-fold of each other.

B14: h1705-009 (antibody, human IgG1, kappa, V domains shown)
VH: B4 VH with N52S, N56D, S57I, A58T, T98K, E99Q, L105F, M113L
VL: B4 VL with G30A, L47V, S50G, A51T, G66R, T69S, F71Y, Y87F, H91D, Q93E
For the molecule B14, the Kd in assay [7] came to 4.55 nM.

B15: h1705-011 (antibody, human IgG1, kappa, V domains shown)
VH: B4 VH with S49T, N52S, N56D, S57I, A58T, V93T, T98S, E99Q, L105F, M113L
VL: B4 VL with G30A, L47V, S50G, A51T, G66R, T69S, F71Y, Y87F, H91D, Q93E
Regarding B15, the Kd in assay [7] amounted to 0.023 nM. In assay [2], the “IC50 of inhibition of IL-5 induced TF1 cell proliferation” value worked out at 0.28 nM.

B16: h1779-014 (antibody, human IgG1, kappa, V domains shown)
VH: EVQLVQSGAEVKKPGASVKVSCKASGYTFTDYIIHWVKQAPGQGLEWIGYFNPNSGGSNYNENFKRKATMTADKSISTAYLEFSRLRSEDTAVYYCARRIAWDHWYFDFWGQGTMVTVSS
VL: DIQMTQSPSSLSASVGDRVTITCLASEGISNDVAWYQQKPGKSPKLLVYAASRLQDGVPSRFSGSGSGTDYTFTISSLQPEDIATYYCQQGYKTPLTFGQGTKLEIKR
notes: See recheck
Take B16: in assay [1], the 50% inhibitory concentration (IC50) turned out to be 0.0496 µg/mL. This molecule registered a dissociation constant (Kd) in assay [7] of 0.412 nM. In assay [2], the “IC50 of inhibition of IL-5 induced TF1 cell proliferation” value is 0.2 nM.

B17: h1773-007 (antibody, human IgG1, kappa, V domains shown)
VH: EVQLVESGGGLVQPGGSLKLSCAASGFTISNTYIHWVKQASGKGLEWIGRIDPAVGDTKHGPKFQGRFTISADDSKNTAYLQMNSLKTEDTAVYYCFRYGIYPDHWGQGTLVTVSS
VL: DIQLTQSPSSLSASVGDRVTITCSASSSVNYIYWYQQKPGKSPKPWIYLTATLASGVPSRFSGSGSGTDFTLTISSLQPEDFATYYCQQWNSYPYTFGGGTKVEIKR
In assay [7], B17 had a Kd of 0.207 nM. Further, the “IC50 of inhibition of IL-5 induced TF1 cell proliferation” value in assay [2] was 0.38 nM.

B18: mAb1779 (antibody, V domains shown)
VH: QVKLLQSGAALVKPGDSVKMSCKASGYTFTDYIIHWVKQSHGKSLEWIGYFNPNSGGSNYNENFKRKATLTADKSSSTAYLEFSRVTSEDSAIYYCGRRIAWDHWYFDFWGPGTMVTVSS
VL: DIQMTQSPASLSASLGETVSIECLASEGISNDVAWYQQKSGRSPQLLVYAASRLQDGVPSRFSGSGSGTRYFFKISGMQPEDEADYFCQQGYKTPLTFGSGTKLEIK
notes: Murine hybridoma antibody
B18: the Kd in assay [4] stood at 0.458 nM; in assay [5], 9.98 nM; in assay [6], 0.458 nM.
